Data reported in patent US20140348819A1, “Methods of Treating Cancer” (Dana-Farber Cancer Institute, Inc., priority 2011, published 2014).

Test system: six V600E BRAF melanoma cell lines
Assay: Screening of recombinant RTK ligands for ability to confer resistance to BRAFi (PLX4720) or MEKi (PD184352) (Table 4)
Assay type: cell-based, human
How it was run: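 Six V600E BRAF melanoma lines treated with PLX4720 or PD184352 after addition of 22 recombinant RTK ligands, scored for drug resistance. Activation of selected RTKs confirmed by western blotting and high-throughput tyrosine kinase phosphorylation profiling.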

B1: MSP (protein, UniProt P26927 19-711, looked up)
Hepatocyte growth factor-like …: QRSPLNDFQVLRGTELQHLLHAVVPGPWQEDVADAEECAGRCGPLMDCRAFHYNVSSHGCQLLPWTQHSPHTRLRRSGRCDLFQKKDYVRTCIMNNGVGYRGTMATTVGGLPCQAWSHKFPNDHKYTPTLRNGLEENFCRNPDGDPGGPWCYTTDPAVRFQSCGIKSCREAACVWCNGEEYRGAVDRTESGRECQRWDLQHPHQHPFEPGKFLDQGLDDNYCRNPDGSERPWCYTTDPQIEREFCDLPRCGSEAQPRQEATTVSCFRGKGEGYRGTANTTTAGVPCQRWDAQIPHQHRFTPEKYACKDLRENFCRNPDGSEAPWCFTLRPGMRAAFCYQIRRCTDDVRPQDCYHGAGEQYRGTVSKTRKGVQCQRWSAETPHKPQFTFTSEPHAQLEENFCRNPDGDSHGPWCYTMDPRTPFDYCALRRCADDQPPSILDPPDQVQFEKCGKRVDRLDQRRSKLRVVGGHPGNSPWTVSLRNRQGQHFCGGSLVKEQWILTARQCFSSCHMPLTGYEVWLGTLFQNPQHGEPSLQRVPVAKMVCGPSGSQLVLLKLERSVTLNQRVALICLPPEWYVVPPGTKCEIAGWGETKGTGNDTVLNVALLNVISNQECNIKHRGRVRESEMCTEGLLAPVGACEGDYGGPLACFTHNCWVLEGIIIPNRVCARSRWPAVFTRVSVFVDWIHKVMRLG
A2058, PD184352 - 1 uM, ligand 0.4 ng/ml
  ability of recombinant RTK ligand to confer resistance: 1.06
A2058, PD184352 - 1 uM, ligand 1.6 ng/ml
  ability of recombinant RTK ligand to confer resistance: 0.98
A2058, PD184352 - 1 uM, ligand 6.25 ng/ml
  ability of recombinant RTK ligand to confer resistance: 1.03
A2058, PD184352 - 1 uM, ligand 25 ng/ml
  ability of recombinant RTK ligand to confer resistance: 1.09
A2058, PD184352 - 1 uM, ligand 100 ng/ml
  ability of recombinant RTK ligand to confer resistance: 1.05
A2058, PLX4720 - 2 uM, ligand 0.4 ng/ml
  ability of recombinant RTK ligand to confer resistance: 1.04
A2058, PLX4720 - 2 uM, ligand 1.6 ng/ml
  ability of recombinant RTK ligand to confer resistance: 1.02
A2058, PLX4720 - 2 uM, ligand 6.25 ng/ml
  ability of recombinant RTK ligand to confer resistance: 1.05
A2058, PLX4720 - 2 uM, ligand 25 ng/ml
  ability of recombinant RTK ligand to confer resistance: 1.04
A2058, PLX4720 - 2 uM, ligand 100 ng/ml
  ability of recombinant RTK ligand to confer resistance: 1.05
C32, PD184352 - 1 uM, ligand 0.4 ng/ml
  ability of recombinant RTK ligand to confer resistance: 0.99
C32, PD184352 - 1 uM, ligand 1.6 ng/ml
  ability of recombinant RTK ligand to confer resistance: 1.02
C32, PD184352 - 1 uM, ligand 6.25 ng/ml
  ability of recombinant RTK ligand to confer resistance: 1.07
C32, PD184352 - 1 uM, ligand 25 ng/ml
  ability of recombinant RTK ligand to confer resistance: 1.01
C32, PD184352 - 1 uM, ligand 100 ng/ml
  ability of recombinant RTK ligand to confer resistance: 0.95
C32, PLX4720 - 2 uM, ligand 0.4 ng/ml
  ability of recombinant RTK ligand to confer resistance: 1.07
C32, PLX4720 - 2 uM, ligand 1.6 ng/ml
  ability of recombinant RTK ligand to confer resistance: 1.01
C32, PLX4720 - 2 uM, ligand 6.25 ng/ml
  ability of recombinant RTK ligand to confer resistance: 1.04
C32, PLX4720 - 2 uM, ligand 25 ng/ml
  ability of recombinant RTK ligand to confer resistance: 1.02
C32, PLX4720 - 2 uM, ligand 100 ng/ml
  ability of recombinant RTK ligand to confer resistance: 0.95
Colo 829, PD184352 - 1 uM, ligand 0.4 ng/ml
  ability of recombinant RTK ligand to confer resistance: 1.03
Colo 829, PD184352 - 1 uM, ligand 1.6 ng/ml
  ability of recombinant RTK ligand to confer resistance: 0.98
Colo 829, PD184352 - 1 uM, ligand 6.25 ng/ml
  ability of recombinant RTK ligand to confer resistance: 1.01
Colo 829, PD184352 - 1 uM, ligand 25 ng/ml
  ability of recombinant RTK ligand to confer resistance: 0.96
Colo 829, PD184352 - 1 uM, ligand 100 ng/ml
  ability of recombinant RTK ligand to confer resistance: 0.93
Colo 829, PLX4720 - 2 uM, ligand 0.4 ng/ml
  ability of recombinant RTK ligand to confer resistance: 0.98
Colo 829, PLX4720 - 2 uM, ligand 1.6 ng/ml
  ability of recombinant RTK ligand to confer resistance: 0.94
Colo 829, PLX4720 - 2 uM, ligand 6.25 ng/ml
  ability of recombinant RTK ligand to confer resistance: 1.03
Colo 829, PLX4720 - 2 uM, ligand 25 ng/ml
  ability of recombinant RTK ligand to confer resistance: 0.97
Colo 829, PLX4720 - 2 uM, ligand 100 ng/ml
  ability of recombinant RTK ligand to confer resistance: 0.99
G-361, PD184352 - 1 uM, ligand 0.4 ng/ml
  ability of recombinant RTK ligand to confer resistance: 1.04
G-361, PD184352 - 1 uM, ligand 1.6 ng/ml
  ability of recombinant RTK ligand to confer resistance: 0.96
G-361, PD184352 - 1 uM, ligand 6.25 ng/ml
  ability of recombinant RTK ligand to confer resistance: 0.92
G-361, PD184352 - 1 uM, ligand 25 ng/ml
  ability of recombinant RTK ligand to confer resistance: 0.98
G-361, PD184352 - 1 uM, ligand 100 ng/ml
  ability of recombinant RTK ligand to confer resistance: 0.90
G-361, PLX4720 - 2 uM, ligand 0.4 ng/ml
  ability of recombinant RTK ligand to confer resistance: 1.00
G-361, PLX4720 - 2 uM, ligand 1.6 ng/ml
  ability of recombinant RTK ligand to confer resistance: 0.89
G-361, PLX4720 - 2 uM, ligand 6.25 ng/ml
  ability of recombinant RTK ligand to confer resistance: 0.91
G-361, PLX4720 - 2 uM, ligand 25 ng/ml
  ability of recombinant RTK ligand to confer resistance: 0.93
G-361, PLX4720 - 2 uM, ligand 100 ng/ml
  ability of recombinant RTK ligand to confer resistance: 0.88
SK-MEL-5, PD184352 - 1 uM, ligand 0.4 ng/ml
  ability of recombinant RTK ligand to confer resistance: 0.94
SK-MEL-5, PD184352 - 1 uM, ligand 1.6 ng/ml
  ability of recombinant RTK ligand to confer resistance: 1.11
SK-MEL-5, PD184352 - 1 uM, ligand 6.25 ng/ml
  ability of recombinant RTK ligand to confer resistance: 1.00
SK-MEL-5, PD184352 - 1 uM, ligand 25 ng/ml
  ability of recombinant RTK ligand to confer resistance: 0.99
SK-MEL-5, PD184352 - 1 uM, ligand 100 ng/ml
  ability of recombinant RTK ligand to confer resistance: 1.11
SK-MEL-5, PLX4720 - 2 uM, ligand 0.4 ng/ml
  ability of recombinant RTK ligand to confer resistance: 0.87
SK-MEL-5, PLX4720 - 2 uM, ligand 1.6 ng/ml
  ability of recombinant RTK ligand to confer resistance: 1.03
SK-MEL-5, PLX4720 - 2 uM, ligand 6.25 ng/ml
  ability of recombinant RTK ligand to confer resistance: 0.98
SK-MEL-5, PLX4720 - 2 uM, ligand 25 ng/ml
  ability of recombinant RTK ligand to confer resistance: 1.01
SK-MEL-5, PLX4720 - 2 uM, ligand 100 ng/ml
  ability of recombinant RTK ligand to confer resistance: 1.12
SK-MEL-28, PD184352 - 1 uM, ligand 0.4 ng/ml
  ability of recombinant RTK ligand to confer resistance: 0.95
SK-MEL-28, PD184352 - 1 uM, ligand 1.6 ng/ml
  ability of recombinant RTK ligand to confer resistance: 0.94
SK-MEL-28, PD184352 - 1 uM, ligand 6.25 ng/ml
  ability of recombinant RTK ligand to confer resistance: 1.00
SK-MEL-28, PD184352 - 1 uM, ligand 25 ng/ml
  ability of recombinant RTK ligand to confer resistance: 1.01
SK-MEL-28, PD184352 - 1 uM, ligand 100 ng/ml
  ability of recombinant RTK ligand to confer resistance: 0.97
SK-MEL-28, PLX4720 - 2 uM, ligand 0.4 ng/ml
  ability of recombinant RTK ligand to confer resistance: 0.92
SK-MEL-28, PLX4720 - 2 uM, ligand 1.6 ng/ml
  ability of recombinant RTK ligand to confer resistance: 1.02
SK-MEL-28, PLX4720 - 2 uM, ligand 6.25 ng/ml
  ability of recombinant RTK ligand to confer resistance: 1.00
SK-MEL-28, PLX4720 - 2 uM, ligand 25 ng/ml
  ability of recombinant RTK ligand to confer resistance: 0.97
SK-MEL-28, PLX4720 - 2 uM, ligand 100 ng/ml
  ability of recombinant RTK ligand to confer resistance: 0.93
